In publication PMC8671394, “Paracrine FGFs target skeletal muscle to exert potent anti-hyperglycemic effects” (Nature Communications, 2021):

B1: full length mature form human FGF4 (mFGF4) (Ala31-Leu206) (ligand, UniProt P08620 31-206, looked up)
chain: APTAPNGTLEAELERRWESLVALSLARLPVAAQPKEAAVQSGAGDYLLGIKRLRRLYCNVGIGFHLQALPDGRIGGAHADTRDSLLELSPVERGVVSIFGVASRFFVAMSSKGKLYGSPFFTDECTFKEILLPNNYNAYESYKYPGMFIALSKNGKTKKGNRVSPTMKVTHFLPRL
notes: fibroblast growth factor 4, human, full length mature form, residues Ala31-Leu206; also called wild-type parent molecule; source: E. coli (BL21), purified
B2: N-terminally truncated human FGF4 (rFGF4) (Ala67-Leu206) (domain or fragment, UniProt P08620 67-206, looked up)
chain: AAVQSGAGDYLLGIKRLRRLYCNVGIGFHLQALPDGRIGGAHADTRDSLLELSPVERGVVSIFGVASRFFVAMSSKGKLYGSPFFTDECTFKEILLPNNYNAYESYKYPGMFIALSKNGKTKKGNRVSPTMKVTHFLPRL
notes: fibroblast growth factor 4, human, engineered N-terminal truncation, residues Ala67-Leu206; also called truncated rFGF4; source: E. coli (BL21), purified

Assays:
[1] = target: T1, soluble extracellular D2-D3 region of human FGFR1c (Asp142-Arg365) (human, UniProt P11362 142-365); assay: SPR
T1 chain: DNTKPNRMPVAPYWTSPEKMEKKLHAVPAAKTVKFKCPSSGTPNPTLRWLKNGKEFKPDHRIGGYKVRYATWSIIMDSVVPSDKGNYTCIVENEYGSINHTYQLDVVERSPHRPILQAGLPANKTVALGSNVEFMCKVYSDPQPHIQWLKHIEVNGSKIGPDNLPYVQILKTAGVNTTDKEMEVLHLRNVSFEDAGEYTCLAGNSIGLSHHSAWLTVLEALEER

[2] = target: T2, soluble extracellular D2-D3 region of human FGFR1c (Asp142-Arg365) (human, UniProt P11362 142-365); assay: SPR; BIAcore T200; HBS-EP buffer (10 mM HEPES-NaOH, pH 7.4, 150 mM NaCl, 3 mM EDTA, 0.005% Surfactant P20); which partner was immobilised is not told in the main text; settings: both partners purified
T2 construct: fibroblast growth factor receptor 1, 'c' splice isoform, human, extracellular D2-D3 region, residues Asp142-Arg365; also called FGFR1c ectodomain; FGFR1c isoform; source: E. coli (BL21), purified
T2 sequence (looked up): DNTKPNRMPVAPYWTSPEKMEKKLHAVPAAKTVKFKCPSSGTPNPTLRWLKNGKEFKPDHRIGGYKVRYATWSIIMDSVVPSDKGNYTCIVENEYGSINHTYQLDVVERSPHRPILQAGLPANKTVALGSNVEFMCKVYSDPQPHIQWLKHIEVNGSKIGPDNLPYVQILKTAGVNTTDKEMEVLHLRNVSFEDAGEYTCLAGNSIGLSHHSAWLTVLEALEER

Binder	Kd [1] [nM]	binding result [2]
B1	464	binds
B2	716	binds
